Article PMC10033377 (Nature structural & molecular biology, 2023)

Columns and labels:
SEC = target: the molecule itself; experiment: SEC
negative stain EM = target: the molecule itself; experiment: negative stain EM

Row | Protein | binding result (SEC) | binding result (negative stain EM)
1 | PRPS1-D52H (enzyme, human) MPNIKIFSGSSHQDLSQKIADRLGLELGKVVTKKFSNQETCVEIGESVRGEHVYIVQSGCGEINDNLMELLIMINACKIASASRVTAVIPCFPYARQDKKDKSRAPISAKLVANMLSVAGADHIITMDLHASQIQGFFDIPVDNLYAEPAVLKWIRENISEWRNCTIVSPDAGGAKRVTSIADRLNVDFALIHKERKKANEVDRMVLVGDVKDRVAILVDDMADTCGTICHAADKLLSAGATRVYAILTHGIFSGPAISRINNACFEAVVVTNTIPQEDKMKHCSKIQVIDISMILAEAIRRTHNGESVSYLFSHVPL | binds | 
2 | PRPS1-S16P (enzyme, human) MPNIKIFSGSSHQDLPQKIADRLGLELGKVVTKKFSNQETCVEIGESVRGEDVYIVQSGCGEINDNLMELLIMINACKIASASRVTAVIPCFPYARQDKKDKSRAPISAKLVANMLSVAGADHIITMDLHASQIQGFFDIPVDNLYAEPAVLKWIRENISEWRNCTIVSPDAGGAKRVTSIADRLNVDFALIHKERKKANEVDRMVLVGDVKDRVAILVDDMADTCGTICHAADKLLSAGATRVYAILTHGIFSGPAISRINNACFEAVVVTNTIPQEDKMKHCSKIQVIDISMILAEAIRRTHNGESVSYLFSHVPL |  | binds
3 | PRPS1-I290T (enzyme, human) MPNIKIFSGSSHQDLSQKIADRLGLELGKVVTKKFSNQETCVEIGESVRGEDVYIVQSGCGEINDNLMELLIMINACKIASASRVTAVIPCFPYARQDKKDKSRAPISAKLVANMLSVAGADHIITMDLHASQIQGFFDIPVDNLYAEPAVLKWIRENISEWRNCTIVSPDAGGAKRVTSIADRLNVDFALIHKERKKANEVDRMVLVGDVKDRVAILVDDMADTCGTICHAADKLLSAGATRVYAILTHGIFSGPAISRINNACFEAVVVTNTIPQEDKMKHCSKIQVTDISMILAEAIRRTHNGESVSYLFSHVPL |  | binds
4 | PRPS1-V309F (enzyme, human) MPNIKIFSGSSHQDLSQKIADRLGLELGKVVTKKFSNQETCVEIGESVRGEDVYIVQSGCGEINDNLMELLIMINACKIASASRVTAVIPCFPYARQDKKDKSRAPISAKLVANMLSVAGADHIITMDLHASQIQGFFDIPVDNLYAEPAVLKWIRENISEWRNCTIVSPDAGGAKRVTSIADRLNVDFALIHKERKKANEVDRMVLVGDVKDRVAILVDDMADTCGTICHAADKLLSAGATRVYAILTHGIFSGPAISRINNACFEAVVVTNTIPQEDKMKHCSKIQVIDISMILAEAIRRTHNGESFSYLFSHVPL |  | binds
